The chains are these.
B1: PTPN9 (parent)
chain: IDFLRVVRNQQSLAVSNMGARSKG
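Also: lentivirally expressed fusions sorted by FACS into six bins by GFP to DsRed ratio, PSI derived from sequencing read proportions per bin multiplied by bin number.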

The variants in this data set derive from B1. Description: protein stability index of a GFP-peptide fusion (GPS, HEK-293T) (PSI 1-6); higher = more stable. Conditions: c terminus: a fixed tail appended.
IDFLRVVRNQQSKAVSNMGARSKG [L13K]: the protein stability index turned out to be 2.75.

On to IDFLRVVRNQQSYAVSNMGARSKG [L13Y], for which the protein stability index was 2.57.

In the case of IDFLRVVRNQQSFAVSNMGARSKG [L13F], the protein stability index amounted to 2.34.

With IDFLRVVRNQQSCAVSNMGARSKG [L13C], the protein stability index worked out at 2.14.

For the variant IDFLRVVRNQQSIAVSNMGARSKG [L13I], the protein stability index amounted to 2.31.

As for IDFLRVVRNQQSEAVSNMGARSKG [L13E], the protein stability index stood at 3.58.

Take IDFLRVVRNQQSWAVSNMGARSKG [L13W]: the protein stability index stood at 2.72.

Consider IDFLRVVRNQQSGAVSNMGARSKG [L13G], for which the protein stability index amounted to 3.24.

With IDFLRVVRNQQSRAVSNMGARSKG [L13R], the protein stability index came out at 2.34.

As to IDFLRVVRNQQSNAVSNMGARSKG [L13N], the protein stability index stood at 3.2.

As to IDFLRVVRNQQSAAVSNMGARSKG [L13A], the protein stability index was determined as 2.73.

On to IDFLRVVRNQQSDAVSNMGARSKG [L13D], for which the protein stability index came to 3.08.

Regarding IDFLRVVRNQQSHAVSNMGARSKG [L13H], the protein stability index worked out at 2.45.

Regarding IDFLRVVRNQQSPAVSNMGARSKG [L13P], the protein stability index is 2.96.

Consider IDFLRVVRNQQSQAVSNMGARSKG [L13Q], for which the protein stability index is 3.3.

Take IDFLRVVRNQQSMAVSNMGARSKG [L13M]: the protein stability index was found to be 2.51.

With IDFLRVVRNQQSTAVSNMGARSKG [L13T], the protein stability index came to 2.57.

In the case of IDFLRVVRNQQSSAVSNMGARSKG [L13S], the protein stability index was 2.7.

For the variant IDFLRVVRNQQSVAVSNMGARSKG [L13V], the protein stability index stood at 2.85.

Consider IDFLRVVRPQQSLAVSNMGARSKG [N9P], for which the protein stability index turned out to be 2.78.

On to IDFLRVVRQQQSLAVSNMGARSKG [N9Q], for which the protein stability index came to 2.14.

For the variant IDFLRVVRRQQSLAVSNMGARSKG [N9R], the protein stability index is 2.44.

On to IDFLRVVRVQQSLAVSNMGARSKG [N9V], for which the protein stability index was found to be 1.89.

On to IDFLRVVRLQQSLAVSNMGARSKG [N9L], for which the protein stability index was 1.61.

As to IDFLRVVRMQQSLAVSNMGARSKG [N9M], the protein stability index is 1.88.

Take IDFLRVVRSQQSLAVSNMGARSKG [N9S]: the protein stability index is 2.15.

On to IDFLRVVRIQQSLAVSNMGARSKG [N9I], for which the protein stability index worked out at 1.67.

IDFLRVVRKQQSLAVSNMGARSKG [N9K]: the protein stability index was 2.58.

For the variant IDFLRVVRYQQSLAVSNMGARSKG [N9Y], the protein stability index amounted to 1.93.

On to IDFLRVVRTQQSLAVSNMGARSKG [N9T], for which the protein stability index stood at 2.28.

As to IDFLRVVRNQQSLCVSNMGARSKG [A14C], the protein stability index is 2.01.

As to IDFLRVVRNQQSLDVSNMGARSKG [A14D], the protein stability index was 2.17.

For IDFLRVVRNQQSLEVSNMGARSKG [A14E], the protein stability index is 1.95.

Regarding IDFLRVVRNQQSLGVSNMGARSKG [A14G], the protein stability index was 2.3.

Consider IDFLRVVRNQQSLFVSNMGARSKG [A14F], for which the protein stability index came out at 2.23.

Turning to IDFLRVVRNQQSLHVSNMGARSKG [A14H], the protein stability index is 2.48.

For IDFLRVVRNQQSLIVSNMGARSKG [A14I], the protein stability index stood at 1.8.

Turning to IDFLRVVRNAQSLAVSNMGARSKG [Q10A], the protein stability index is 2.06.

Turning to IDFLRVVRNFQSLAVSNMGARSKG [Q10F], the protein stability index is 2.35.

As for IDFLRVVRNEQSLAVSNMGARSKG [Q10E], the protein stability index worked out at 2.87.

For IDFLRVVRNSQSLAVSNMGARSKG [Q10S], the protein stability index came to 1.43.

On to IDFLRVVRNRQSLAVSNMGARSKG [Q10R], for which the protein stability index was 2.19.

As to IDFLRVVRNNQSLAVSNMGARSKG [Q10N], the protein stability index was 2.39.

As to IDFLRVVRNWQSLAVSNMGARSKG [Q10W], the protein stability index stood at 2.02.

IDFLRVVRNTQSLAVSNMGARSKG [Q10T]: the protein stability index amounted to 2.4.

Regarding IDFLRVVRNCQSLAVSNMGARSKG [Q10C], the protein stability index is 1.89.

With IDFLRVVRNIQSLAVSNMGARSKG [Q10I], the protein stability index was 1.95.

As to IDFLRVVRNMQSLAVSNMGARSKG [Q10M], the protein stability index turned out to be 2.54.

Consider IDFLRVVRNLQSLAVSNMGARSKG [Q10L], for which the protein stability index stood at 2.2.

Regarding IDFLRVVRNDQSLAVSNMGARSKG [Q10D], the protein stability index came to 2.63.

For IDFLRVVRNKQSLAVSNMGARSKG [Q10K], the protein stability index is 2.27.

IDFLRVVRNHQSLAVSNMGARSKG [Q10H]: the protein stability index was 2.49.

As to IDFLRVVRNVQSLAVSNMGARSKG [Q10V], the protein stability index is 2.02.

IDFLRVVRNGQSLAVSNMGARSKG [Q10G]: the protein stability index was 3.19.

Regarding IDFLRVVRNPQSLAVSNMGARSKG [Q10P], the protein stability index was 2.74.

Turning to IDFLRVVRNYQSLAVSNMGARSKG [Q10Y], the protein stability index stood at 2.35.

As to IDFLRVVRNQMSLAVSNMGARSKG [Q11M], the protein stability index was determined as 2.1.

With IDFLRVVRNQISLAVSNMGARSKG [Q11I], the protein stability index amounted to 1.8.

Consider IDFLRVVRNQVSLAVSNMGARSKG [Q11V], for which the protein stability index was 1.67.

For IDFLRVVRNQDSLAVSNMGARSKG [Q11D], the protein stability index worked out at 2.57.

On to IDFLRVVRNQTSLAVSNMGARSKG [Q11T], for which the protein stability index worked out at 2.29.

Regarding IDFLRVVRNQNSLAVSNMGARSKG [Q11N], the protein stability index was determined as 2.84.

Take IDFLRVVRNQPSLAVSNMGARSKG [Q11P]: the protein stability index turned out to be 2.37.

Turning to IDFLRVVRNQFSLAVSNMGARSKG [Q11F], the protein stability index is 1.95.

With IDFLRVVRNQRSLAVSNMGARSKG [Q11R], the protein stability index stood at 2.31.

For the variant IDFLRVVRNQESLAVSNMGARSKG [Q11E], the protein stability index is 2.35.

IDFLRVVRNQASLAVSNMGARSKG [Q11A]: the protein stability index was 1.99.

With IDFLRVVRNQWSLAVSNMGARSKG [Q11W], the protein stability index stood at 1.34.

As to IDFLRVVRNQCSLAVSNMGARSKG [Q11C], the protein stability index turned out to be 1.91.

Take IDFLRVVRNQHSLAVSNMGARSKG [Q11H]: the protein stability index was found to be 2.26.

As for IDFLRVVRNQSSLAVSNMGARSKG [Q11S], the protein stability index came out at 2.31.

With IDFLRVVRNQLSLAVSNMGARSKG [Q11L], the protein stability index came to 1.81.

As for IDFLRVVRNQKSLAVSNMGARSKG [Q11K], the protein stability index was found to be 2.26.

IDFLRVVRNQGSLAVSNMGARSKG [Q11G]: the protein stability index amounted to 2.35.

On to IDFLRVVRNQYSLAVSNMGARSKG [Q11Y], for which the protein stability index came to 2.12.

As for IDFLRVVRNQQVLAVSNMGARSKG [S12V], the protein stability index is 2.34.

For IDFLRVVRNQQKLAVSNMGARSKG [S12K], the protein stability index turned out to be 2.55.

Take IDFLRVVRNQQQLAVSNMGARSKG [S12Q]: the protein stability index turned out to be 2.02.

As to IDFLRVVRNQQTLAVSNMGARSKG [S12T], the protein stability index worked out at 2.15.

As for IDFLRVVRNQQRLAVSNMGARSKG [S12R], the protein stability index came to 2.52.

With IDFLRVVRNQQHLAVSNMGARSKG [S12H], the protein stability index was determined as 2.41.

Regarding IDFLRVVRNQQGLAVSNMGARSKG [S12G], the protein stability index turned out to be 2.48.

For the variant IDFLRVVRNQQMLAVSNMGARSKG [S12M], the protein stability index turned out to be 2.22.

As to IDFLRVVRNQQELAVSNMGARSKG [S12E], the protein stability index is 2.65.

With IDFLRVVRNQQNLAVSNMGARSKG [S12N], the protein stability index came out at 2.1.

In the case of IDFLRVVRNQQYLAVSNMGARSKG [S12Y], the protein stability index was found to be 1.8.

For IDFLRVVRNQQFLAVSNMGARSKG [S12F], the protein stability index was determined as 2.26.

Take IDFLRVVRNQQILAVSNMGARSKG [S12I]: the protein stability index was 1.99.

As for IDFLRVVRNQQDLAVSNMGARSKG [S12D], the protein stability index amounted to 2.75.

IDFLRVVRNQQCLAVSNMGARSKG [S12C]: the protein stability index is 1.89.

Turning to IDFLRVVRNQQPLAVSNMGARSKG [S12P], the protein stability index came to 2.46.

For the variant IDFLRVVRNQQLLAVSNMGARSKG [S12L], the protein stability index came out at 2.31.

Turning to IDFLRVVRNQQWLAVSNMGARSKG [S12W], the protein stability index turned out to be 1.69.

Consider IDFLRVVRNQQALAVSNMGARSKG [S12A], for which the protein stability index was found to be 2.04.

The values are drawn from the supplement of paper PMC10567573.
